The record followed here is patent US20090041777A1 (UNIVERSITY OF MASSACHUSETTS, published 2009).

In assay [1] the target is T1, ERA-CO20-439 (secreted soluble ectodomain of codon-optimized ERA rabies G glycoprotein, Myc/His tagged) (rabies virus, ERA strain, UniProt P03524 20-439).
T1 sequence: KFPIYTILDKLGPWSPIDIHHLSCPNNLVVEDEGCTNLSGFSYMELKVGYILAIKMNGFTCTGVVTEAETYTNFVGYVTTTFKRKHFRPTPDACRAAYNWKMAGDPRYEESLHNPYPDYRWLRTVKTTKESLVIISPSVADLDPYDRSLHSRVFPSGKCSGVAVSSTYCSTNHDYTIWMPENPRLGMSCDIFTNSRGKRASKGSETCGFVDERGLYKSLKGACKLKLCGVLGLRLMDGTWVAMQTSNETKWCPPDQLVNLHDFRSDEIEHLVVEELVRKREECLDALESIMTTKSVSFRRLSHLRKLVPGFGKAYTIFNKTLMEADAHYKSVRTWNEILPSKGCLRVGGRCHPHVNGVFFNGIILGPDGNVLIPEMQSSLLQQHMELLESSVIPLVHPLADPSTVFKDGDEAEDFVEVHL
Kind of assay: Biacore (SPR) on the ectodomain region of codon-optimized rabies G glycoprotein.

Assay [2] has as its target T2, ERA-CO glycoprotein (codon-optimized full-length rabies G glycoprotein, ERA strain, amino acids 1-524, … (rabies virus, ERA strain, UniProt P03524 20-524)).
T2 sequence: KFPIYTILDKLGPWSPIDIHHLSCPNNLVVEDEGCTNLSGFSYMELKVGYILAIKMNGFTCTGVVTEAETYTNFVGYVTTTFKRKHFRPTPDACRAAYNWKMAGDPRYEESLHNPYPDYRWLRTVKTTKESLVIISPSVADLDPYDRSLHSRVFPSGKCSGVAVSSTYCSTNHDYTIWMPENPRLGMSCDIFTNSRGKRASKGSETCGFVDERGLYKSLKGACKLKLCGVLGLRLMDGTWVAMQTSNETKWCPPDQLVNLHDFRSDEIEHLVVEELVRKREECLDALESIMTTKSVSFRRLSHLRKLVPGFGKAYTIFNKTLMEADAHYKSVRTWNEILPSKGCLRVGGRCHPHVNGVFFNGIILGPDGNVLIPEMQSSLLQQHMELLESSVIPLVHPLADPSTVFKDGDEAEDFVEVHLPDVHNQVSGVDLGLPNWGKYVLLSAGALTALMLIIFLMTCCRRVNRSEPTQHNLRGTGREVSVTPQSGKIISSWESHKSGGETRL
Kind of assay: flow cytometry on transfected 293T cells, PE anti-human IgG.

B1: HuMab 17C7 (antibody, V domains shown)
VH: QVQLVESGGGVVQPGRSLRLSCAASGFTFSTYAMHWVRQAPGKGLEWVAVVSYDGRTKDYADSVKGRFTISRDNSKNTLYLQMNSLRTEDTAVYFCARERFSGAYFDYWGQGTLVTVSS
VL: EIVLTQSPATLSLSPGERATLSCRASQSVSSYLAWYQQKPGQAPRLLIYDASNRATGIPARFSGSGSGTDFTLTISSLEPEDFAVYSCQQRNNWPPTFGGGTKVEIK
In the case of B1, the Kd in assay [1] is at most 13.6 nM. In addition, the “EC50 (read off the curve)” value in assay [2] is about 30 nM.
